Source: paper PMC9057587 (The Journal of Clinical Investigation, 2022)

Biological target: T1, human Tim-3 (T cell immunoglobulin mucin domain-containing protein 3) (Homo sapiens, UniProt Q8TDQ0)
T1 construct: human Tim-3 (HAVCR2), injected as the SPR analyte; I surmise the monomeric IgV domain; also called hTim3; hTim-3
Assay: SPR; Biacore T200, 37°C; antibody captured on a CM4 chip with preimmobilized anti-human IgG Fc pAb; human Tim-3 injected as analyte, single-cycle kinetics, 5-membered 5-fold dilution series, 1 uM top; 10 mM HEPES, 150 mM NaCl, 0.05% Tween 20, pH 7.4, 1 g/L BSA; 1:1 Langmuir model with mass transport
Settings: both partners purified

T1 sequence (Q8TDQ0 22-301): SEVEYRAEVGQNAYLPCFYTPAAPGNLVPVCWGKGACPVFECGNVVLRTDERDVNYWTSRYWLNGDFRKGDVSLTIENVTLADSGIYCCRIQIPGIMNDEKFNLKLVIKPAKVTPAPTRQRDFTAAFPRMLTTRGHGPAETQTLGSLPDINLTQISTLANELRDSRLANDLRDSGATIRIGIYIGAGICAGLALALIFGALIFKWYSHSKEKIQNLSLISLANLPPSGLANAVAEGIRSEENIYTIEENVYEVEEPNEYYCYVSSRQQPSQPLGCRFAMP

Kd: 1.8 nM
koff: 0.0046 s⁻¹
kon: 2.6e+06 M⁻¹ s⁻¹
B1: aTim-3.18 monoclonal antibody (antibody, V domains shown)
VH: QLQLQESGPGLVKPSETLSLTCTVSGGSISSRSYYWGWIRQPPGKGLEWIGSIYYSGFTYYQPSLKSRVTISVDTSKNQFSLKLSSVTAADTAVYYCATGGPYGDYAHWFEPWGQGTLVTVSS
VL: not shown
notes: Whole mAb from Bristol Myers Squibb, captured in SPR through an anti-human IgG Fc antibody; The isotype-matched control was an IgG4, so I surmise the mAb is a human IgG4; source: Expi293, transient transfection, purified (Protein A MabSelect SuRe)
